Assay results taken from the supplement of paper PMC12042874.
± gives the uncertainty stated by the source.

assay: amyloid nucleation score (Sup35N fusion, yeast selection) (log enrichment); library NNK2; higher = more nucleation; inactive = no reads after selection
Outline: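 Using DiMSum, nucleation scores were taken as the log enrichment of output over input reads, centred on the mode score of non-aggregating sequences. The input and output reads came from Illumina sequencing of plasmid inserts, with sequences under 100 input reads excluded. The yeast were psi-negative, expressed Sup35N fused to peptides of 20 random codons, were induced with 100 μM copper sulfate for 24 hours, and were grown 7 days at 30°C on medium lacking adenine and uracil.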

| Substance | amyloid nucleation score |
| --- | --- |
| SNLFGKLYVCFERDPRRKMM | 3.32 ± 0.12 |
| SNLSLMFLLRVSIGDKKEEE | 7.555 ± 0.034 |
| SNSNTSEWKTG | -0.156 ± 0.79 |
| SNTHISYYWGTNVWLHVDIN | 6.194 ± 0.028 |
| SNYGCDQWWNITWFE | -0.791 ± 0.61 |
| SPDATGYTNKVLGSRLIRRR | 1.44 ± 0.38 |
| SPTNIRP | -0.185 ± 0.47 |
| SPYRLSPTQTLSFCFIRHLP | inactive |
| SQHMLEL | -0.633 ± 1.1 |
| SQMYGLAYVCRQ | 6.28 ± 0.076 |
| SQRNTLEFVLAGYKTTLVIS | -0.549 ± 0.27 |
| SQVLLGQCCMNHKDLSFVWI | 0.708 ± 0.34 |
| SQVQSFIFSPGLNNSKAEFT | -0.078 ± 0.8 |
| SQYMVGPGKRRKKSYGVG | inactive |
| SRFCEH | -0.164 ± 0.39 |
| SRKFFPVFN | inactive |
| SRLAY | inactive |
| SRNRFHSYLMSRCNMWQLHY | 0.287 ± 0.33 |
| SRRETTYHVVMDTFPTFAIT | 0.943 ± 0.52 |
| SRRGDRSRWCEMVMDVKVCS | 5.208 ± 0.041 |
| SRRLCVTFAVFGSHKVLLS | inactive |
| SRRVFVKWGNWSCFVVVEDN | 0.072 ± 0.16 |

| Substance | amyloid nucleation score |
| --- | --- |
| SRSVEGLKLWATNSAGHVVA | 0.958 ± 0.3 |
| SRSVIFSGESSHHADWFWTV | 1.16 ± 0.68 |
| SRSYSNLWLGAHVLTRLRHD | -0.337 ± 1.1 |
| SRWPLGNMCGKPVEMPEKWS | 0.836 ± 0.55 |
| SRYKWKTDVHTKWTCHF | 1.73 ± 0.091 |
| SSDTIQYYSKQNMVRRENC | 1.09 ± 0.52 |
| SSFNTDFACSWVGYMAVVSM | -0.771 ± 1.1 |
| SSFSHLSNAIGMPFICNCEP | -0.385 ± 0.45 |
| SSGLGTSVGSGILNSRDKDG | 0.434 ± 0.51 |
| SSGSRRLWSLRSRIAQRNMQ | 2.83 ± 0.17 |
| SSKTGWSHGIMVQPK | inactive |
| SSLDNIWSTSD | 0.337 ± 0.57 |
| SSMRRGVIRRCNYKL | -0.992 ± 0.24 |
| SSMVQR | -0.917 ± 0.55 |
| SSPLVNRFPEGVYMNCK | -0.15 ± 0.49 |
| SSPSYSSSSHKRTL | 2.14 ± 0.25 |
| SSRLAKIHSMGWFFIFLGIS | -1.22 ± 1 |
| SSRLALEVDKATKRVW | -0.474 ± 1.1 |
| SSRWQFYGHF | 0.518 ± 0.26 |
| SSSFLL | -0.545 ± 0.76 |
| SSSMSESAT | inactive |
| SSTFPPF | -0.691 ± 0.41 |

| Substance | amyloid nucleation score |
| --- | --- |
| SSVEAELICLWKFCTTHVCT | 0.168 ± 0.56 |
| SSVLPGVRPGWNTMWWAACL | 0.844 ± 0.39 |
| SSVRCTYGLNCNQRL | 2.92 ± 0.076 |
| SSYDLITIKEFIKSGRVK | -0.119 ± 0.35 |
| SSYMSRALSCGHSFGKVGAN | 0.697 ± 0.81 |
| SSYRINPRKPLR | 0.028 ± 0.63 |
| STAKYVYYTLLR | 0.204 ± 0.65 |
| STCKLWGVQWFPGGEDRNWK | -0.155 ± 0.42 |
| STGCSYHFRMIHATVTTYFG | 3.59 ± 0.053 |
| STLVWSEIIF | 0.592 ± 0.47 |
| STNIRSLMLLFCNNIEQASV | 7.816 ± 0.038 |
| STPIAEV | 0.6 ± 0.29 |
| STPLGPFLYF | -0.961 ± 0.76 |
| STSFRASSGDKYEFDVKHLV | 0.195 ± 0.76 |
| STSIPCSEHDFVCYHMVCGF | -0.652 ± 0.37 |
| STVVLSHRCLLSCE | -0.656 ± 1.1 |
| STWVWMSFCVNLLDPHACGS | 7.542 ± 0.03 |
| STWWWYLCIQARLMCMRFLA | -0.357 ± 0.23 |
| STYRSASMVQVGRLVHGNQW | 5.38 ± 0.063 |
| STYSIIYV | 0.831 ± 0.17 |
| SVAWVLLWV | 0.636 ± 0.81 |
| SVCLSSYFHCKRSVMWFYKV | -0.363 ± 0.74 |

| Substance | amyloid nucleation score |
| --- | --- |
| SVFIGVVPNESQCYV | 0.069 ± 0.39 |
| SVFMFCVSEL | -0.049 ± 0.63 |
| SVGGR | -0.288 ± 0.8 |
| SVIASWKSCLSLLVFQH | -0.695 ± 0.64 |
| SVKQLTPD | -0.319 ± 0.6 |
| SVKWKTRDEKS | -0.711 ± 0.54 |
| SVLAGDLNLRLVFYCMFMYH | 1.61 ± 0.31 |
| SVLGTKVRVYRSGWTLRIFE | -0.456 ± 0.37 |
| SVLHPLTSKWNGKKWV | inactive |
| SVLTLTSIIYLGSCKFLNFM | 6.241 ± 0.032 |
| SVNASGT | -0.114 ± 0.8 |
| SVNWEDKDLGVGSNLEIASL | -0.889 ± 1 |
| SVPDFDRWAFTGRVQTYADC | -0.614 ± 0.79 |
| SVRLNFEFRDYDCRQVLSIF | -0.825 ± 1.1 |
| SVRVA | 1.66 ± 0.26 |
| SVSLNCSPLFFYFRRYKVSR | 6.052 ± 0.038 |
| SVSVEYWCSLWDRRDKGSSQ | 0.619 ± 0.81 |
| SVSYTNVLYHIKVDEFFNEC | 1.3 ± 0.25 |
| SVTVHFENVVDIRYVCVTMG | 0.341 ± 0.65 |
| SVVGFTPQKL | -0.049 ± 0.34 |
| SVYAGVLM | -0.555 ± 0.63 |
| SVYMPSVCNKLFFRGCGYGF | 3.04 ± 0.096 |
